This series deals with the molecule itself. Description: crystal structure; X-ray crystallography of β4ex; antiparallel contacts between β4ex molecules in the crystal lattice; crystals from 30% (w/v) PEG 1500, sitting drop, 20 °C.

B1: mouse β4 subunit extracellular domain fragment (domain or fragment, UniProt Q7M729 30-160, looked up)
chain: SLEVSVGKATTIYAINGSSILLPCTFSSCYGFENLYFKWSYNNSETSRILIDGIVKNDKSDPKVRVKDDDRITLEGSTKEKTNNISILLSDLEFSDTGRYTCFVRNPKEKDLNNSATIFLQVVDKLEKVDN
notes: voltage-gated sodium channel β4 subunit, mouse, residues 30-160; amino acid numbering starts from the initiator methionine; His tag removed by TEV protease; contains all three Cys residues; also called β4ex; β4 extracellular domain; source: Escherichia coli cell-free method, purified (HisTrap, TEV cleavage, Mono Q, Superdex 75); not shown: histidine tag, N-terminal, cleaved
B1: the binding result is “binds”.
